# Test results taken from PMC3615049 (Biochemistry, 2013).
# B1: GB1-hCLK-1 (human Clock-1 with an N-terminal immunoglobulin binding domain of protein G) (enzyme, UniProt Q99807 39-217, looked up)
# chain: MTLDNISRAAVDRIIRVDHAGEYGANRIYAGQMAVLGRTSVGPVIQKMWDQEKDHLKKFNELMVTFRVRPTVLMPLWNVLGFALGAGTALLGKEGAMACTVAVEESIAHHYNNQIRTLMEEDPEKYEELLQLIKKFRDEELEHHDIGLDHDAELAPAYAVLKSIIQAGCRVAIYLSERL
# Columns and labels:
# purified protein [1] = substrate: COC1=CC(=O)C(C)=C(C/C=C(\C)CCC=C(C)C)C1=O; assay: purified protein; assay type: biochemical, Homo sapiens; details: 200 μM NADH, 5 μM enzyme, 25 °C, pH 7.0
# purified protein [2] = substrate: COC1=CC(=O)C(C)=CC1=O; assay: purified protein; assay type: biochemical, Homo sapiens; details: 200 μM NADH, 5 μM enzyme, 20 mM Tris pH 7.0 in H2O, 25 °C
# SEC = biological target: the molecule itself; assay: SEC
protein,measurement,setting,value
B1,Km,purified protein [1],33.8 µM
same,Vmax,purified protein [1],39.2 µM/min
same,kcat/Km,purified protein [1],3870 M⁻¹ s⁻¹
same,Km,purified protein [2],68.1 µM
same,Vmax,purified protein [2],12.8 µM/min
same,kcat/Km,purified protein [2],627 M⁻¹ s⁻¹
same,stoichiometry N,SEC,2
